In the supplement of paper PMC6757056:
± gives the standard deviation of the averaged measurements.

B1: library; a variant is named by its letters at N, in order (parent)
chain: GCUGUCACCGGUGUAUUACCCUAGUGGUCGACCGGUCUGAUGAGUCUNNNNNNAGACGAAACAGC

What was measured:
[1] = variants of: B1; experiment: FACS-Seq fitted mean relative fluorescence mCherry/BFP without ligand (log10 relative fluorescence); ligand: hypoxanthine (xanthine aptamer); higher = higher reporter protein expression; settings: HEK293T, ligand present: no
Outline: (§1)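 An mCherry reporter containing the ribozyme switch and an EF1α-BFP marker were introduced by lentivirus into HEK293T libraries. Cells were enriched, incubated 48 h with or without ligand, sorted into 6 bins by mCherry/BFP, and bin genomic DNA was PCR-amplified, barcoded and sequenced on MiSeq. Fluorescence represents the normalized fitted normal mean of the bin counts. Fitting was done on log10(mCherry/BFP), scaling to five spiked-in control ribozymes.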

[2] = variants of: B1; experiment: normalized RNA/DNA level with ligand (relative to sTRSVctl = 100) (log10 (% of sTRSVctl)); ligand: hypoxanthine (xanthine aptamer); higher = less ribozyme self-cleavage, higher mRNA level; settings: ligand concentration (+) RNA-Seq: 5 mM, HEK293T, reporter: mCherry (pCS4076), ligand present: yes
Outline: (§2)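 HEK293T cells were transfected with library plasmids carrying ribozyme switches linked to an mCherry reporter, or an eGFP reporter in some ligand experiments, at 4 µg per well of a 6-well plate, with any ligand added 1 h beforehand. After 72 h, total RNA was extracted with EDTA, reverse-transcribed, amplified, barcoded and sequenced. RNA level was defined as RNA reads over DNA reads, normalized to a spiked-in non-cleaving sequence or to the top-ranked sequences. That value was multiplied by 100 and converted to log10, the top set was 25 sequences, and only sequences with ≥100 DNA reads were retained.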

[3] = variants of: B1; experiment: normalized RNA/DNA level without ligand (relative to sTRSVctl = 100) (log10 (% of sTRSVctl)); ligand: hypoxanthine (xanthine aptamer); higher = less ribozyme self-cleavage, higher mRNA level; settings: HEK293T, reporter: mCherry (pCS4076), ligand present: no
Outline: as §2

[4] = variants of: B1; experiment: FACS-Seq fitted mean relative fluorescence mCherry/BFP with ligand (log10 relative fluorescence); ligand: hypoxanthine (xanthine aptamer); ligand concentration (+) FACS-Seq: 5 mM; higher = higher reporter protein expression; settings: HEK293T, ligand present: yes
Outline: as §1

Row | Variant | FACS-Seq fitted mean (log10) [1] | normalized RNA/DNA level with ligand (log10) [2] | normalized RNA/DNA level without ligand (log10) [3] | FACS-Seq fitted mean (log10) [4]
1 | GGUCUA | 0.4701 ± 0.0031 | 1.896 ± 0.0023 | 1.9 ± 0.022 | 0.586 ± 0.022
2 | UUAAGG | 0.505 ± 0.031 | 1.925 ± 0.015 | 1.77 ± 0.058 | 0.538 ± 0.077
3 | UUAAGA | 0.6835 ± 0.0045 | 1.884 ± 0.0019 | 1.68 ± 0.059 | 0.618 ± 0.02
4 | GGUUAG | 0.17 ± 0.041 | 1.726 ± 0.017 | 1.383 ± 0.0095 | 0.458 ± 0.03
5 | GGUUAC | 0.247 ± 0.029 | 1.96 ± 0.064 | 1.8 ± 0.066 | 0.276 ± 0.0034
6 | UGGUUU | 0.325 ± 0.015 | 1.95 ± 0.023 | 1.885 ± 0.005 | 0.434 ± 0.035
7 | UGUUUG | -0.153 ± 0.036 | 2.04 ± 0.037 | 1.93 ± 0.035 | 0.0349 ± 0.0062
8 | AGGUUG | 0.0275 ± 0.013 | 1.88 ± 0.021 | 1.48 ± 0.042 | 0.557 ± 0.036
9 | GGUAUG | -0.113 ± 0.019 | 1.73 ± 0.052 | 1.32 ± 0.038 | 0.434 ± 0.035
10 | GUAAGG | 0.181 ± 0.047 | 1.87 ± 0.042 | 1.38 ± 0.015 | 0.408 ± 0.026
11 | GUAAGC | 0.302 ± 0.007 | 1.886 ± 0.015 | 1.53 ± 0.023 | 0.667 ± 0.078
12 | GUAAGA | 0.291 ± 0.0051 | 1.89 ± 0.0055 | 1.73 ± 0.01 | 0.214 ± 0.029
13 | UGUACA | 0.848 ± 0.044 | 1.919 ± 0.018 | 1.85 ± 0.066 | 0.78 ± 0.076
14 | UGUACU | 0.71 ± 0.019 | 1.933 ± 0.012 | 1.8501 ± 0.00062 | 0.66 ± 0.018
15 | CGUUUC | 0.944 ± 0.041 | 1.95 ± 0.058 | 1.908 ± 0.0084 | 0.812 ± 0.15
16 | UGUGCG | -0.404 ± 0.074 | 1.933 ± 0.015 | 1.684 ± 0.014 | 0.178 ± 0.0062
17 | CGUCAA | 0.13 ± 0.025 | 1.96 ± 0.023 | 1.807 ± 0.016 | 0.3 ± 0.077
18 | UGUGGA | -0.645 ± 0.11 | 1.91 ± 0.06 | 1.52 ± 0.12 | -0.186 ± 0.061
19 | UGUAGA | 0.133 ± 0.057 | 1.93 ± 0.043 | 1.55 ± 0.049 | 0.19 ± 0.011
20 | GUAAUU | 0.444 ± 0.086 | 1.91 ± 0.047 | 1.9 ± 0.025 | 0.229 ± 0.036
21 | GUAAUC | 0.801 ± 0.026 | 1.95 ± 0.046 | 1.756 ± 0.012 | 0.81 ± 0.068
22 | GUAAUG | 0.27 ± 0.022 | 1.853 ± 0.0059 | 1.52 ± 0.028 | 0.529 ± 0.0072
23 | UGUCGU | 0.313 ± 0.02 | 1.91 ± 0.036 | 1.61 ± 0.041 | 0.591 ± 0.008
24 | UGUCGG | 0.0812 ± 0.15 | 1.9 ± 0.04 | 1.543 ± 0.01 | 0.151 ± 0.019

Row | Variant | FACS-Seq fitted mean (log10) [1] | normalized RNA/DNA level with ligand (log10) [2] | normalized RNA/DNA level without ligand (log10) [3] | FACS-Seq fitted mean (log10) [4]
25 | AUAACA | 0.00278 ± 0.0073 | 1.9 ± 0.041 | 1.83 ± 0.031 | 0.0853 ± 0.19
26 | AUAAGG | 0.0649 ± 0.081 | 1.8 ± 0.019 | 1.4 ± 0.038 | 0.345 ± 0.062
27 | AUAAGU | 0.122 ± 0.094 | 1.852 ± 0.0077 | 1.629 ± 0.011 | 0.279 ± 0.058
28 | AUAAGA | 0.457 ± 0.047 | 1.9 ± 0.045 | 1.715 ± 0.0051 | 0.556 ± 0.068
29 | AUAAGC | 0.474 ± 0.0089 | 1.918 ± 0.014 | 1.786 ± 0.01 | 0.6615 ± 0.0049
30 | AGUAAU | 0.85054 ± 0.00034 | 1.88 ± 0.03 | 1.85 ± 0.056 | 0.78 ± 0.058
31 | AGUAAA | 0.625 ± 0.22 | 1.891 ± 0.011 | 1.73 ± 0.063 | 0.59 ± 0.032
32 | AGUAGU | 0.38 ± 0.09 | 1.831 ± 0.016 | 1.45 ± 0.07 | 0.577 ± 0.036
33 | AGUAGA | 0.394 ± 0.025 | 1.83 ± 0.031 | 1.42 ± 0.025 | 0.725 ± 0.0082
34 | UGUGAC | 0.481 ± 0.0063 | 1.94 ± 0.022 | 1.839 ± 0.0072 | 0.42 ± 0.077
35 | AGUUGC | 0.226 ± 0.043 | 1.91 ± 0.048 | 1.72 ± 0.022 | 0.382 ± 0.02
36 | AGUUGG | -0.154 ± 0.12 | 1.8 ± 0.037 | 1.338 ± 0.0021 | 0.403 ± 0.075
37 | UUACAU | 0.352 ± 0.018 | 1.93 ± 0.051 | 1.87 ± 0.026 | 0.453 ± 0.11
38 | UUACAC | 0.362 ± 0.025 | 1.92 ± 0.079 | 1.81 ± 0.025 | 0.444 ± 0.051
39 | AGUUCA | 0.179 ± 0.0096 | 1.91 ± 0.034 | 1.802 ± 0.0084 | 0.4165 ± 0.0023
40 | CGUGGA | 0.123 ± 0.011 | 1.96 ± 0.02 | 1.729 ± 0.0031 | 0.396 ± 0.057
41 | CGUGGG | 0.0862 ± 0.026 | 1.85 ± 0.022 | 1.3 ± 0.078 | 0.505 ± 0.047
42 | CUACUA | 0.522 ± 0.16 | 1.9 ± 0.046 | 1.78 ± 0.02 | 0.51 ± 0.059
43 | GGUGUG | -0.123 ± 0.13 | 1.783 ± 0.013 | 1.29 ± 0.051 | 0.24 ± 0.004
44 | GGUGUA | 0.31 ± 0.061 | 1.91 ± 0.027 | 1.765 ± 0.0096 | 0.381 ± 0.023
45 | AGUGGC | -0.495 ± 0.045 | 1.98 ± 0.033 | 1.83 ± 0.023 | 0.0818 ± 0.018
46 | AGUGGA | 0.318 ± 0.0063 | 1.9085 ± 0.001 | 1.62 ± 0.047 | 0.468 ± 0.084
47 | AGUUAG | 0.335 ± 0.052 | 1.8 ± 0.054 | 1.44 ± 0.078 | 0.569 ± 0.019
48 | AGUUAC | 0.497 ± 0.083 | 1.89 ± 0.011 | 1.775 ± 0.016 | 0.655 ± 0.14

Row | Variant | FACS-Seq fitted mean (log10) [1] | normalized RNA/DNA level with ligand (log10) [2] | normalized RNA/DNA level without ligand (log10) [3] | FACS-Seq fitted mean (log10) [4]
49 | AGUUAA | 0.799 ± 0.015 | 1.92 ± 0.04 | 1.76 ± 0.032 | 0.802 ± 0.094
50 | AGUGUA | -0.349 ± 0.012 | 1.9 ± 0.044 | 1.71 ± 0.035 | -0.0909 ± 0.009
51 | AGUGUG | 0.0689 ± 0.056 | 1.8 ± 0.038 | 1.32 ± 0.038 | 0.489 ± 0.033
52 | GGUGCC | 0.798 ± 0.026 | 2.009 ± 0.0084 | 1.97 ± 0.04 | 0.76 ± 0.035
53 | GGUGCG | 0.452 ± 0.027 | 1.91 ± 0.056 | 1.58 ± 0.094 | 0.656 ± 0.018
54 | GGUGCU | 0.444 ± 0.03 | 2.022 ± 0.015 | 1.977 ± 0.015 | 0.475 ± 0.041
55 | UGUCCC | 0.383 ± 0.13 | 2 ± 0.12 | 1.935 ± 0.013 | 0.29 ± 0.068
56 | UGUCCU | 0.984 ± 0.042 | 1.95 ± 0.091 | 1.93 ± 0.039 | 0.87 ± 0.054
57 | GUACAA | -0.152 ± 0.025 | 1.91 ± 0.035 | 1.76 ± 0.064 | 0.27 ± 0.051
58 | GUACAG | 0.688 ± 0.084 | 1.87 ± 0.071 | 1.45 ± 0.07 | 0.818 ± 0.08
59 | CUAAAC | 0.4073 ± 0.0033 | 1.89 ± 0.025 | 1.827 ± 0.015 | 0.415 ± 0.1
60 | GGUAGC | 0.239 ± 0.017 | 1.86 ± 0.054 | 1.35 ± 0.059 | 0.647 ± 0.056
61 | GGUAGG | -0.101 ± 0.028 | 1.69 ± 0.062 | 1.29 ± 0.041 | 0.5153 ± 0.001
62 | GGUAGU | 0.573 ± 0.11 | 1.9 ± 0.06 | 1.75 ± 0.0084 | 0.507 ± 0.034
63 | CGUAUA | 0.422 ± 0.015 | 1.91 ± 0.025 | 1.641 ± 0.007 | 0.566 ± 0.016
64 | GGGUUG | 0.034 ± 0.047 | 1.92 ± 0.024 | 1.64 ± 0.073 | 0.486 ± 0.065
65 | GGUACU | 0.2 ± 0.042 | 1.97 ± 0.083 | 1.93 ± 0.047 | 0.258 ± 0.029
66 | GGUACG | 0.173 ± 0.027 | 1.88 ± 0.031 | 1.49 ± 0.016 | 0.506 ± 0.019
67 | UUAAUA | 0.528 ± 0.021 | 1.9466 ± 0.0017 | 1.79 ± 0.029 | 0.658 ± 0.014
68 | AUACGC | 0.365 ± 0.04 | 1.91 ± 0.056 | 1.72 ± 0.042 | 0.5194 ± 0.0036
69 | AUACGG | -0.0504 ± 0.059 | 1.785 ± 0.012 | 1.27 ± 0.082 | 0.547 ± 0.084
70 | AUAAAU | 0.431 ± 0.027 | 1.9 ± 0.035 | 1.7593 ± 0.00014 | 0.576 ± 0.017
71 | AUAAAC | 0.413 ± 0.047 | 1.893 ± 0.0082 | 1.81 ± 0.023 | 0.517 ± 0.15
72 | AUAAAG | 0.43 ± 0.03 | 1.87 ± 0.024 | 1.51 ± 0.053 | 0.678 ± 0.081
